What all share (test): ELISA; one protein (25 nM) or two proteins together (12.5 nM each) coated on wells 16 h at 4 °C in buffer A (20 mM Tris-HCl, 150 mM NaCl, 1 mM ZnCl2, 1 mM CaCl2, 1 mM MgCl2, pH 7.4); soluble protein at 50 to 0.78 nM; detected with antibody and HRP secondary; calculated KD
In assay [1] the target is recombinant murine α3(V)-NTD (N-terminal non-triple helical domain of the α3(V) collagen chain) (murine).
Assay [2] deals with GPC1+FGF2 combined (co-adsorbed on the well) (UniProt P35052).
In assay [3] the target is recombinant glypican-1 (R&D Systems) (UniProt P35052).
The target in another assay is recombinant FGF2 (UniProt P09038).

Usually Kd stands for the concentration at which binding is half-saturated.

recombinant FGF2, sequence (P09038 143-288): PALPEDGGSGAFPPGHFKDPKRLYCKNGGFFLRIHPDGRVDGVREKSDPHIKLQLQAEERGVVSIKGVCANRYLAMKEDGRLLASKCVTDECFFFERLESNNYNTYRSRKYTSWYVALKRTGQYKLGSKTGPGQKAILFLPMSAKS

For the substance “recombinant FGF2 (from UniProt P09038 143-288) (ligand)”, in assay [1], the Kd was 36 nM.

Turning to “recombinant murine α3(V)-NTD (N-terminal non-triple helical domain of the α3(V) collagen chain) (domain or fragment)”, the Kd is 16 nM in assay [2], 33 nM in assay [3] and 35 nM in the assay with recombinant FGF2.

Consider “recombinant glypican-1 (R&D Systems) (from UniProt P35052 24-530) (natural protein)”, for which the dissociation constant Kd in assay [1] is 34 nM.

These data come from paper PMC5253704.
